The assay deals with cynomolgous monkey LAG3 expressed on cells (cynomolgous monkey). The assay can be described thus: cell based KinExA, BaF/3 cells transfected with cynomolgus LAG3 (n=2). (In general: Kinetic exclusion samples the free partner from a solution-phase mixture.)

One molecule from patent US20190083615A1 can be followed below.

What is called Kd is the free concentration of one partner at which half of the binding sites on the other are occupied at equilibrium, for simple one-to-one binding.

cynomolgous monkey LAG3 expressed on cells (cynomolgous monkey), sequence (P18627 other isoform, or with tags, fused parts or gaps limits assumed): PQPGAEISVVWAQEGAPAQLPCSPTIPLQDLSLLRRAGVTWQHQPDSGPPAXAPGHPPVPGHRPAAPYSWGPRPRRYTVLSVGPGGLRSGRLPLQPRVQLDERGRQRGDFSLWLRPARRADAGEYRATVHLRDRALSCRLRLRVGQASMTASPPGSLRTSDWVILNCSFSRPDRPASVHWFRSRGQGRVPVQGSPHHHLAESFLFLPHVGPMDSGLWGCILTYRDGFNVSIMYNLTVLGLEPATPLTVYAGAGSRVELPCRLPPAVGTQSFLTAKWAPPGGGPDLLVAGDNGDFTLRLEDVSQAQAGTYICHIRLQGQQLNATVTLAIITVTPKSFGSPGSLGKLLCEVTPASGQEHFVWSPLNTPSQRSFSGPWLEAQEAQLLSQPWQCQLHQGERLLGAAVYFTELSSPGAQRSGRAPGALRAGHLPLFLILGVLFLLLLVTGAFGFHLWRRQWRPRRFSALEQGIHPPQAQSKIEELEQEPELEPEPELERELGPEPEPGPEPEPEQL

B1: 22D2 chimera: chimeric antibody [LAG3_H] mAb (LB145.22D2.E1.D1 (VH0/VL0) Geneart) IgG4 S228P/kappa (PX) (antibody, V domains shown)
VH: EVLLLQSGPELVKPGTSVKIPCKASGYTFTDYNVDWVKQRHGKGLEWIGDINPNNGGTIYSQKFKGKATLTVDKSSSTAFMELRSLTSEDTAVYFCARNYRWFGAMDHWGQGTSVTVSS
VL: DIVLTQSPASLAVSPGQRATISCKASQSLDYEGDSDMNWYQQKPGQPPRLLISGASNLESGIPARFSGSGSGTDFTVNIHPVEEEDAATYYCQQSTEDPRTFGGGTKLEIK
For B1, the Kd was found to be 0.011 nM.
